± gives the standard error. Variants at the floor of the assay were thinned out.
B1: glmS ribozyme (parent)
chain: AUAAAAGCGCCAGAACUACAGAAAUGUAGUUGACGAGGAGGAGGUUUAUCGAAUUUUCGGCGGAUGCCUCCAAA

Key:
Settings in all cases: with glucosamine-6-phosphate
[1] = variants of: B1; assay: self-cleavage kobs at 640 uM GlcN6P; higher = faster cleavage; RNA array
Summary of the method: (§1)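 Barcoded ribozyme variants on sequenced MiSeq chips were transcribed in situ by E. coli RNA polymerase and followed at 37 °C through a hybridised Cy3 probe. Glucosamine-6-phosphate at 40 μM to 10 mM in HEPES/KCl/Mg(OAc)2 buffer was flowed in, and tiles were imaged over ~14 h. Signals were normalised to baseline and to non-cleaving reference variants, and per-tile medians were fit to one- or two-exponential decays to give kobs. Weighted Michaelis–Menten fits across concentrations gave kcat and KM.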

[2] = variants of: B1; assay: self-cleavage kobs at 2500 uM GlcN6P; higher = faster cleavage; RNA array
Summary of the method: as §1

[3] = variants of: B1; assay: self-cleavage kobs at 10000 uM GlcN6P; higher = faster cleavage; RNA array
Summary of the method: as §1

Row | Variant | self-cleavage kobs at 640 uM GlcN6P [1] [s⁻¹] | self-cleavage kobs at 2500 uM GlcN6P [2] [s⁻¹] | self-cleavage kobs at 10000 uM GlcN6P [3] [s⁻¹]
1 | AUAAAAGCGCCAGAACUACAGAAAUGUAGUUGACGAGGAGGAGGUGUAUCGAGUUUUCGGCGGAUUCCUCCAAA | 7.95e-05 ± 2e-05 | 0.000148 ± 5.2e-05 | 
2 | AUAAAAGCGCCAGAACUACAGAAAUGUACUUGACGAGGAGGAGGUUUAUCGAGUUUUCGGCGGAUGCAUCCAAA | 0.000139 ± 5.9e-05 | 9.57e-05 ± 3.7e-05 | 
3 | AUAAAAGCGCCAGAACUACAGAAAUGUAGUUGACGAGGAGGAGGUUUAUGGAAUUUUCGCCGGAUGCCUACAAA | 0.000161 ± 5.8e-05 | 5.41e-05 ± 2.7e-05 | 
4 | AUAAAAGCGCCAGAAUUACAGAAAUGUAGUUGACGAGGAGGAGGUUUAUCGAAUUUGCGGCGGAUGCUUCCAAA | 3.89e-05 ± 1.6e-05 |  | 
5 | AUAAAAGCGCCAGAACUACAGAAAUGUAGUUGACCAGGAUGAGGUUUAUCGUAUUUUCGGCGUAUGCCUCCAAA | < 1e-05 | < 1e-05 | 
6 | AUAAAAGCGCCAGAACUACAGAAAUGUAGUUGCCGAGGAGGAGGCUAGUCGAAUUUUCGGCGGAUGCCUCCAAA | < 1e-05 |  | 
7 | AUAAAAGCGCCAGAACUACAGAAAUGUAGUUGACGAGGAGGAGGUUUAUCGAAUUUUCUGCAGAUGCCUCCAAA | < 1e-05 |  | < 1e-05
8 | AUAAAAGCACCAGAACUACAGAAAUGUAGUUGACGAAGAGGAGGUCUAUCGAAUUUUCGGCGGAUGCCUCCAAA | < 1e-05 |  | 
9 | AUAAAAGCGCAAGCACUACAGAAAUGUAGUUGACGAGGAGGAGAUUUAUCGAAUUUUCGGCGGAUUCCUCCAAA | < 1e-05 | < 1e-05 | 
10 | AUAAAAGCGCCAGAACUACAGAAAUGUAGUUGACGAGGAGGAGGUUUAUCGAAUUUUCGGGAGAUGCCUCCAAA | < 1e-05 | < 1e-05 | 
11 | AUAAAAGCGCCAGAACUACAGAAAUGUAGUCGACGAAGAGGAGGUUUAUCGAAUUUUCGGCGGAUGCCUCCAAA | 0.000113 ± 2.3e-05 | 0.000119 ± 1.8e-05 | 0.000359 ± 3.4e-05
12 | AUAAAAGCGCCAGAACUACAGAAAUGUAGUAGACGAGGAGGAGGUUUAUCGAGUUUUCGGCGGAAGCCUACAAA | 6.1e-05 ± 2.4e-05 |  | 
13 | AUAAAAACGCCAGAACUACAGAAAUGUAGUUGACGAGGAGGAGGUUUAUCGAAUCUUGGGCGGAUGCCUCCAAA | < 1e-05 |  | 
14 | AUAAAAGCGCCCGAACUACAGAAAUGUAGUUGACGAGGAGGAGGUUUAUCGUAUUUACGGCGGAUGCCUCCAAA | 0.000131 ± 2.7e-05 | 0.000458 ± 5.1e-05 | 
15 | AUAAAAGCGCCAGAACUACAGAAAUGUAGUUUACGAGCAGGAGGUUUAUCGAAUUUUCGGCGGAUGCUUCCAAA | < 1e-05 |  | 
16 | AUAAAAGCGCCAGAACUACAGAAAUGUAGUUGACGACGGGGAGGAUUAACGAAUUUUCGGCGGAUGCCUCCAAA | < 1e-05 | < 1e-05 | 
17 | AUAAAAGCGCCAGAACUACAGAAAUGUAGUUGACGAGGAGGAGGUGUAUUGAAUUUUCGGCGGAUGCGUCCAAA | 5.83e-05 ± 2.6e-05 |  | 
18 | AUAAAAGCGCCAGAACUACAGACAUGUAGUUGACGAGGAGGAGGUUUAUCGAAUUUUCGGCGGAUGCCACCAAA | 0.000292 ± 0.0001 | 0.000135 ± 2.9e-05 | 9.83e-05 ± 4.3e-05
19 | AUAAAAGCGCCAGAACUACAGAAAUGUAGUUGACGAGGAGGAGGUUAAUCGAAUUUUUGGCGGACGCCUCCAAA | < 1e-05 |  | 
20 | AUAAAAGCGCCAGAACUACAGAAAUGUAGAUGAUGAGGAGCAGGUUUAUCAAAUUUUCGGCGGAUGCCUCCAAA | < 1e-05 |  | 
21 | AUAAAAGCGCCAGAACUACAGAAAUGUAGUUGACGAAGAUGACGUUUAUCGAAUUUUCGGCGGAUGCCUCCAAA | < 1e-05 |  | 
22 | AUAAAAUCACCAGAACUACAGAAAUGUAGUUGACGAGUAGGAGGUUUAUCGAAUUUUCGGCGGAUGCCUCCAAA | < 1e-05 |  | 
23 | AUAAAAGCGCCAGAACUACAGAAAUGUAGUUGACCUGAAGGAGGUUUAUCGAAUUUUCGGCGGAUGCCUCCAAA | < 1e-05 |  | 
24 | AUAAAAGCGCCAGAAAUACAGAAAUGUAGUUGACGAGGAGGAGGUUUAUCGAAUUUUCGGCGGAUGCCUUAAAA | 0.00012 ± 4.3e-05 |  | 

— the supplement of paper PMC7125110
